Reference: patent US20150344570A1 (published 2015)

T1: FcγRIIa R (FcγRIIa, allotype with Arg at position 131), extracellular domain with C-terminal His tag (human, UniProt P12318 34-217)
T1 construct: extracellular domain; also called FcγRIIa R type; 2aR
T1 sequence (looked up): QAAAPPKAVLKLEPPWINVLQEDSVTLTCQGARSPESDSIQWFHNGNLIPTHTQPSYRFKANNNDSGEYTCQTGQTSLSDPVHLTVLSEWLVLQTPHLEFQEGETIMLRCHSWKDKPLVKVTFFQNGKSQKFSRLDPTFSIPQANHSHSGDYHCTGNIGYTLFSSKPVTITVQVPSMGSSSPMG

B1: GpH7-A5/GpH7-B3 variant T335_19Q/GpL16-k0 (antibody, human IgG1, kappa)
heavy 1: not shown
heavy 2: not shown
light: DIVMTQSPLSLPVTPGEPASISCQASESLVHSNRNTYLHWYLQKPGQSPQLLIYKVSNRFSGVPDRFSGSGSGTDFTLKISRVEAEDVGVYYCSQNTHVPPTFGQGTKVEIERTVAAPSVFIFPPSDEQLKSGTASVVCLLNNFYPREAKVQWKVDNALQSGNSQESVTEQDSKDSTYSLSSTLTLSKADYEKHKVYACEVTHQGLSSPVTKSFNRGEC
notes: also called He Ab
B2: GpH7-A5/GpH7-B3 variant Y296_09D/GpL16-k0 (antibody, human IgG1, kappa)
heavy 1: not shown
heavy 2: not shown
light: B1 light
notes: also called He Ab
B3: GpH7-A5/GpH7-B3 variant Y296_06M/GpL16-k0 (antibody, human IgG1, kappa)
heavy 1: not shown
heavy 2: not shown
light: B1 light
notes: also called He Ab
B4: GpH7-A5/GpH7-B3 variant Y296_04F/GpL16-k0 (antibody, human IgG1, kappa)
heavy 1: not shown
heavy 2: not shown
light: B1 light
notes: also called He Ab
B5: GpH7-A5/GpH7-B3 variant Y296_13S/GpL16-k0 (antibody, human IgG1, kappa)
heavy 1: not shown
heavy 2: not shown
light: B1 light
notes: also called He Ab
B6: GpH7-A5/GpH7-B3 variant Y296_16H/GpL16-k0 (antibody, human IgG1, kappa)
heavy 1: not shown
heavy 2: not shown
light: B1 light
notes: also called He Ab
B7: GpH7-A5/GpH7-B3 variant Y296_10E/GpL16-k0 (antibody, human IgG1, kappa)
heavy 1: not shown
heavy 2: not shown
light: B1 light
notes: also called He Ab
B8: GpH7-A5/GpH7-B3 variant Y296_18N/GpL16-k0 (antibody, human IgG1, kappa)
heavy 1: not shown
heavy 2: not shown
light: B1 light
notes: also called He Ab
B9: GpH7-A5/GpH7-B3 variant Y296_19Q/GpL16-k0 (antibody, human IgG1, kappa)
heavy 1: not shown
heavy 2: not shown
light: B1 light
notes: also called He Ab
B10: GpH7-A5/GpH7-B3 variant V266_06M/GpL16-k0 (antibody, human IgG1, kappa)
heavy 1: not shown
heavy 2: not shown
light: B1 light
notes: also called He Ab
B11: GpH7-A5/GpH7-B3 variant T335_20W/GpL16-k0 (antibody, human IgG1, kappa)
heavy 1: not shown
heavy 2: not shown
light: B1 light
notes: also called He Ab
B12: GpH7-A5/GpH7-B3 variant Y296_14T/GpL16-k0 (antibody, human IgG1, kappa)
heavy 1: not shown
heavy 2: not shown
light: B1 light
notes: also called He Ab
B13: GpH7-A5/GpH7-B3 variant Y300_18N/GpL16-k0 (antibody, human IgG1, kappa)
heavy 1: not shown
heavy 2: not shown
light: B1 light
notes: also called He Ab
B14: GpH7-A5/GpH7-B3 variant Y296_20W/GpL16-k0 (antibody, human IgG1, kappa)
heavy 1: not shown
heavy 2: not shown
light: B1 light
notes: also called He Ab
B15: GpH7-A5/GpH7-B3 variant Y296_07I/GpL16-k0 (antibody, human IgG1, kappa)
heavy 1: not shown
heavy 2: not shown
light: B1 light
notes: also called He Ab
B16: GpH7-B3 variant K334_01G/GpL16-k0 (antibody, human IgG1, kappa)
heavy: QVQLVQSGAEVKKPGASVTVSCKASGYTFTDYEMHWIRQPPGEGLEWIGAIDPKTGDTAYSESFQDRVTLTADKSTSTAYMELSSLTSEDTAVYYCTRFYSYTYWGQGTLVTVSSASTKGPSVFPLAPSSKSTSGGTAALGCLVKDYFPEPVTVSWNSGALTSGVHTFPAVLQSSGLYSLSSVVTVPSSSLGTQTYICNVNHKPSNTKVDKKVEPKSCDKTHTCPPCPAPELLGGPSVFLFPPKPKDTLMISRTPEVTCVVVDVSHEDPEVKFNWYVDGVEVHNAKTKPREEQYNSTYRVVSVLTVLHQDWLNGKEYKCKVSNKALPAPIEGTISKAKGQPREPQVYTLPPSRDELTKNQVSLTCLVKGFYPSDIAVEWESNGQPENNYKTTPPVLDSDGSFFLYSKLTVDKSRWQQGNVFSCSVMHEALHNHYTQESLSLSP
light: B1 light
notes: also called Ho Ab K334_01G
B17: GpH7-B3 variant A330_04F/GpL16-k0 (antibody, human IgG1, kappa)
heavy: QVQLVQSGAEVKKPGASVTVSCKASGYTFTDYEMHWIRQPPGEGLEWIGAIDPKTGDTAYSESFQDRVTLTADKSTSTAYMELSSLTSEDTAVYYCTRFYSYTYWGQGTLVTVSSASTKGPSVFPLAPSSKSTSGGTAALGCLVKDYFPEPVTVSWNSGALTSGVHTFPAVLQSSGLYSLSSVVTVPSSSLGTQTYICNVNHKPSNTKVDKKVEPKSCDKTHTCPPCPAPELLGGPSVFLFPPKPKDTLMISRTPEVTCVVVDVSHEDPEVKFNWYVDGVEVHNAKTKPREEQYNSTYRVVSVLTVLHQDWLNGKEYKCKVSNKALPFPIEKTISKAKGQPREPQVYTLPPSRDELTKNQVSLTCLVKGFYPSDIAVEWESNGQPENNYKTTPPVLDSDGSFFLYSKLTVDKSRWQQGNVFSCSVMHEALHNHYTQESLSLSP
light: B1 light
notes: also called Ho Ab A330_04F
B18: GpH7-B3 variant E333_16H/GpL16-k0 (antibody, human IgG1, kappa)
heavy: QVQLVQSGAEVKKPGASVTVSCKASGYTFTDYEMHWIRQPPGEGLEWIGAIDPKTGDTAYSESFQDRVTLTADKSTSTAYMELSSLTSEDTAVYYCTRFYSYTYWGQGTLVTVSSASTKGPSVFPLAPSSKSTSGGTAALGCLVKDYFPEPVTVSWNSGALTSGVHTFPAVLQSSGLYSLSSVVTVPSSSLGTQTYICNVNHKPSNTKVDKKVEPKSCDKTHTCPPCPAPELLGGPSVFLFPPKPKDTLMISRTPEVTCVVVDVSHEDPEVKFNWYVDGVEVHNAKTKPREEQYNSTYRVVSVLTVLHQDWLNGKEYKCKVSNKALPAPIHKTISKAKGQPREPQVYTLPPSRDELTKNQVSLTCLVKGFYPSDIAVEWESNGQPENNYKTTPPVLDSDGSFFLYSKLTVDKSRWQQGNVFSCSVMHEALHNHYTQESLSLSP
light: B1 light
notes: also called Ho Ab E333_16H
B19: GpH7-B3 variant A330_20W/GpL16-k0 (antibody, human IgG1, kappa)
heavy: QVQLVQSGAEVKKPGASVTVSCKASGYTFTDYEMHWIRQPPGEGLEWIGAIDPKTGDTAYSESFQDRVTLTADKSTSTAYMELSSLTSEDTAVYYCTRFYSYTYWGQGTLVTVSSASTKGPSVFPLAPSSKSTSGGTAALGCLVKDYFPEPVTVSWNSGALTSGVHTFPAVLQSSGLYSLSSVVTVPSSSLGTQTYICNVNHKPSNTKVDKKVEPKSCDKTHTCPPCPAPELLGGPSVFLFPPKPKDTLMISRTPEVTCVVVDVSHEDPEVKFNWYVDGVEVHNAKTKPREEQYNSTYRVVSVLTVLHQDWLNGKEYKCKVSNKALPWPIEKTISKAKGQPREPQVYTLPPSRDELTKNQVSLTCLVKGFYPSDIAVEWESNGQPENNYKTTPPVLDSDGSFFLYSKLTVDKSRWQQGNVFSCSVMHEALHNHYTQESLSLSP
light: B1 light
notes: also called Ho Ab A330_20W
B20: GpH7-B3 variant I336_06M/GpL16-k0 (antibody, human IgG1, kappa)
heavy: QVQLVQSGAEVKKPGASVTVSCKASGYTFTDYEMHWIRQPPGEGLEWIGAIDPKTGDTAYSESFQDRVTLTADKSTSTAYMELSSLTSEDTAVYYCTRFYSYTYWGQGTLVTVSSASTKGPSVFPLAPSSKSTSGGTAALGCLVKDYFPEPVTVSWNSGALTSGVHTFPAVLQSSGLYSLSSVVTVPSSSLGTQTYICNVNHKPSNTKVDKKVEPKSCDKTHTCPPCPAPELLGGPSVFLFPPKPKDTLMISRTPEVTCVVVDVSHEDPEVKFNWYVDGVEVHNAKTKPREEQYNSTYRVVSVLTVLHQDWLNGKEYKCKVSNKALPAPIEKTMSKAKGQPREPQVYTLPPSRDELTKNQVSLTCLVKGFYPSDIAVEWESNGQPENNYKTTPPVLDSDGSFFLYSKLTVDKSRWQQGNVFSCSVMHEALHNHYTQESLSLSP
light: B1 light
notes: also called Ho Ab I336_06M
B21: GpH7-B3 variant K334_04F/GpL16-k0 (antibody, human IgG1, kappa)
heavy: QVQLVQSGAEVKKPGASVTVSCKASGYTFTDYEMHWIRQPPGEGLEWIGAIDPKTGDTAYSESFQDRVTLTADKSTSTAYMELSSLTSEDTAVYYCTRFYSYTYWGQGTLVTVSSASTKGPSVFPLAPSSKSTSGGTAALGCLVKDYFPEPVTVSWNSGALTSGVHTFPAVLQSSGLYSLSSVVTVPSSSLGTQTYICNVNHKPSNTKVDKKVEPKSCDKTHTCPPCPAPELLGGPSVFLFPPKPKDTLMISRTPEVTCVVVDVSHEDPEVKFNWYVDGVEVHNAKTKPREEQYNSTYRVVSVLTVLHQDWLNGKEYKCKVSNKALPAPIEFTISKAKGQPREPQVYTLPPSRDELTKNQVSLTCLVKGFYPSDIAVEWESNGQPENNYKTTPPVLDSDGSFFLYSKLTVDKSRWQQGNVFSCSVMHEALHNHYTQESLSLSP
light: B1 light
notes: also called Ho Ab K334_04F
B22: GpH7-B3 variant I336_10E/GpL16-k0 (antibody, human IgG1, kappa)
heavy: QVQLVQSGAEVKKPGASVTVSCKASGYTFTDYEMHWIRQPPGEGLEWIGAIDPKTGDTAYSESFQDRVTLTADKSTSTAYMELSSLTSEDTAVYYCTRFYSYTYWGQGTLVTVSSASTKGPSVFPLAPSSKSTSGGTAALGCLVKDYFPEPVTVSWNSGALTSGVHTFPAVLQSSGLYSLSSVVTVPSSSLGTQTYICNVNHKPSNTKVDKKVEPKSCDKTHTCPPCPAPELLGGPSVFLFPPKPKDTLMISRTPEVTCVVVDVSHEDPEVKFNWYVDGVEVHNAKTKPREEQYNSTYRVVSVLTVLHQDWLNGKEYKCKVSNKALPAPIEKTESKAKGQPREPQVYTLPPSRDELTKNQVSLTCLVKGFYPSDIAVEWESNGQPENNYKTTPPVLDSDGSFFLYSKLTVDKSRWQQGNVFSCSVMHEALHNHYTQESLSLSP
light: B1 light
notes: also called Ho Ab I336_10E
B23: GpH7-B3 variant I332_10E/GpL16-k0 (antibody, human IgG1, kappa)
heavy: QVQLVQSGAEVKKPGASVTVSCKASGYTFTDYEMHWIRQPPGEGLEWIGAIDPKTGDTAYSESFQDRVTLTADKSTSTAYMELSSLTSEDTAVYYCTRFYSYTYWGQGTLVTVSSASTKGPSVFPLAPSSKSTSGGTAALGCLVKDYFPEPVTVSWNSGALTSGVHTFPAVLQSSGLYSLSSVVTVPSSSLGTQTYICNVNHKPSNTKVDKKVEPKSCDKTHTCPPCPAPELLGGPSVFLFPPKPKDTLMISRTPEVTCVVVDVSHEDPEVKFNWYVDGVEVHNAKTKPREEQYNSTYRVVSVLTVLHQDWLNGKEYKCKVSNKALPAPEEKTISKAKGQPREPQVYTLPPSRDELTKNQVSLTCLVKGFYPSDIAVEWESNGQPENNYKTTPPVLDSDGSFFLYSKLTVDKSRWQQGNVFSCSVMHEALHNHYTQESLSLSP
light: B1 light
notes: also called Ho Ab I332_10E
B24: GpH7-B3 variant K326_04F/GpL16-k0 (antibody, human IgG1, kappa)
heavy: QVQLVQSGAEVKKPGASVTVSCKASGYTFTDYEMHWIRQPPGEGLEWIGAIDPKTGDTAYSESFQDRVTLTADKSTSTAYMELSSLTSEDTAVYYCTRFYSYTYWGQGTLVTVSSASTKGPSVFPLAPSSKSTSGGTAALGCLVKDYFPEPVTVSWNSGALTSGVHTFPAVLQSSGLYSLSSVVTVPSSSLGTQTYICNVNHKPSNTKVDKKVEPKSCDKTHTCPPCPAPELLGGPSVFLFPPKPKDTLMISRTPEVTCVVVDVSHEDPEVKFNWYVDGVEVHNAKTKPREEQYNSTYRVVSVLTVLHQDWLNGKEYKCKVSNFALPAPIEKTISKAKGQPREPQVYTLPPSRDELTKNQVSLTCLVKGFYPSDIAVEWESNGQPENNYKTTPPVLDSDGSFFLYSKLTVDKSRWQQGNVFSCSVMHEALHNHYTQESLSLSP
light: B1 light
notes: also called Ho Ab K326_04F
B25: GpH7-B3 variant K334_05P/GpL16-k0 (antibody, human IgG1, kappa)
heavy: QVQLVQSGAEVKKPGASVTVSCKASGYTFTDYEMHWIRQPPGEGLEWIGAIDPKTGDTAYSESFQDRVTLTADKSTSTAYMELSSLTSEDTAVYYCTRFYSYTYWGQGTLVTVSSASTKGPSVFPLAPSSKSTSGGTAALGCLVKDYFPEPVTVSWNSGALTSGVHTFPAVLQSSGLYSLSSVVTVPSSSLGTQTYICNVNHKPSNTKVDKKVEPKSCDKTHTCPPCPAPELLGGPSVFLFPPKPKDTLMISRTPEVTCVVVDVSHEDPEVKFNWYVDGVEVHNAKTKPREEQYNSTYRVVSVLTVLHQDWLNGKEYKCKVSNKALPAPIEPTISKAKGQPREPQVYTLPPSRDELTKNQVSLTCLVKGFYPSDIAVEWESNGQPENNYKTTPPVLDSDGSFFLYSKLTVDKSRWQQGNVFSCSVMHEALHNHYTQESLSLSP
light: B1 light
notes: also called Ho Ab K334_05P
B26: GpH7-B3 variant H268_13S/GpL16-k0 (antibody, human IgG1, kappa)
heavy: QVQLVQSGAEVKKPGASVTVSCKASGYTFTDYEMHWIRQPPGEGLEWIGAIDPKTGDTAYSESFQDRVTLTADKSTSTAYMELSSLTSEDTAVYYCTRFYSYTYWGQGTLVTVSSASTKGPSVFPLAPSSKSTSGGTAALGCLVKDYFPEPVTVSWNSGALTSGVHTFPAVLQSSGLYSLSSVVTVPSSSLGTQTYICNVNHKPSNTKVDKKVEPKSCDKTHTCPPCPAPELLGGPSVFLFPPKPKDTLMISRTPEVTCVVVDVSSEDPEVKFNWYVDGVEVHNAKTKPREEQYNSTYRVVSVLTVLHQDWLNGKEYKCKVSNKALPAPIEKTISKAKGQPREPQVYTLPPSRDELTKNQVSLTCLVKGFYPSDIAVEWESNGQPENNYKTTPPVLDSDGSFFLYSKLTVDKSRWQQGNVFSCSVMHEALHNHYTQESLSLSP
light: B1 light
notes: also called Ho Ab H268_13S
B27: GpH7-B3 variant I332_01G/GpL16-k0 (antibody, human IgG1, kappa)
heavy: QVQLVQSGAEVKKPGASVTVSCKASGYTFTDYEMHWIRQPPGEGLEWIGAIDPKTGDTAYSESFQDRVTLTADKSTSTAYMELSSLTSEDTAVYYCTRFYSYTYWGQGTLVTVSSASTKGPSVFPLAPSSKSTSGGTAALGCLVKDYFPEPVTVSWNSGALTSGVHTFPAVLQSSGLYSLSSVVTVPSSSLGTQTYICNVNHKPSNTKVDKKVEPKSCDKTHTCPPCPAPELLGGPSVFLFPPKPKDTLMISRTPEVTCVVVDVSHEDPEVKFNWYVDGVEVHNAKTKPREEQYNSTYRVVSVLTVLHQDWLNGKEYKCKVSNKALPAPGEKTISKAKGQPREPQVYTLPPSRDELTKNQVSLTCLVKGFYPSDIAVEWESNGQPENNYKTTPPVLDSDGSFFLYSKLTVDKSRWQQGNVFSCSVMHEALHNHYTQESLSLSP
light: B1 light
notes: also called Ho Ab I332_01G

target: T1, FcγRIIa R (FcγRIIa, allotype with Arg …); test: SPR (Biacore), antibody captured on antigen peptide chip, FcγR as analyte; relative binding

Row | He/Con_2aR | Binder
1 | 106 % of GpH7-A5/GpH7-B3/GpL16-k0 (=100) | B1
2 | 106 % of GpH7-A5/GpH7-B3/GpL16-k0 (=100) | B2
3 | 101 % of GpH7-A5/GpH7-B3/GpL16-k0 (=100) | B3
4 | 109 % of GpH7-A5/GpH7-B3/GpL16-k0 (=100) | B4
5 | 102 % of GpH7-A5/GpH7-B3/GpL16-k0 (=100) | B5
6 | 105 % of GpH7-A5/GpH7-B3/GpL16-k0 (=100) | B6
7 | 103 % of GpH7-A5/GpH7-B3/GpL16-k0 (=100) | B7
8 | 104 % of GpH7-A5/GpH7-B3/GpL16-k0 (=100) | B8
9 | 102 % of GpH7-A5/GpH7-B3/GpL16-k0 (=100) | B9
10 | 150 % of GpH7-A5/GpH7-B3/GpL16-k0 (=100) | B10
11 | 109 % of GpH7-A5/GpH7-B3/GpL16-k0 (=100) | B11
12 | 103 % of GpH7-A5/GpH7-B3/GpL16-k0 (=100) | B12
13 | 100 % of GpH7-A5/GpH7-B3/GpL16-k0 (=100) | B13
14 | 110 % of GpH7-A5/GpH7-B3/GpL16-k0 (=100) | B14
15 | 101 % of GpH7-A5/GpH7-B3/GpL16-k0 (=100) | B15

target: T2, FcγRIIIa extracellular domain with C-terminal His tag (human, UniProt P08637 17-208); test: SPR Biacore, captured antibody, FcγR analyte, relative binding
T2 construct: extracellular domain; also called FcgRIIIa; 3a; not shown: His tag attached to the C terminus
T2 sequence (P08637 17-208): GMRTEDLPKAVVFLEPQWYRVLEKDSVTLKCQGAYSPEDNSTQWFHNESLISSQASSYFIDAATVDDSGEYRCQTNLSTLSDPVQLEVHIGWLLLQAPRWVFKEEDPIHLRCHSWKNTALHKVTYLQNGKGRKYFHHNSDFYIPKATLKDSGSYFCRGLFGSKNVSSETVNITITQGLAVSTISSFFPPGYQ
Experimental: Analysis of interaction between objective antibody and the FcγR was carried out using Biacore T100 (GE Healthcare). HBS-EP+ (GE Healthcare) was used as the running buffer, and the measurement temperature was set to 25° C. Chips produced by immobilizing the antigen peptide by the amine coupling method to a Series S Sencor Chip CM5 (GE Healthcare), or alternatively, chips produced by allowing preliminarily biotinylated antigen peptides to interact with and immobilize onto a Series S Sensor Chip SA (certified) (GE Healthcare) were used. Antibodies of interest were captured onto an antigen peptide-immobilized chip, and allowed to interact to each FcγR diluted with running buffer. To regenerate and repeatedly use the chip, the antibodies captured on the chip were washed off by reacting 10 mM glycine-HCl, pH 1.5.

Row | Ho/Con_3a | Binder
16 | 104 % of HoCon Ab GpH7-B3/GpL16-k0 (=100) | B16
17 | 174 % of HoCon Ab GpH7-B3/GpL16-k0 (=100) | B17
18 | 111 % of HoCon Ab GpH7-B3/GpL16-k0 (=100) | B18
19 | 118 % of HoCon Ab GpH7-B3/GpL16-k0 (=100) | B19
20 | 107 % of HoCon Ab GpH7-B3/GpL16-k0 (=100) | B20
21 | 168 % of HoCon Ab GpH7-B3/GpL16-k0 (=100) | B21
22 | 130 % of HoCon Ab GpH7-B3/GpL16-k0 (=100) | B22
23 | 278 % of HoCon Ab GpH7-B3/GpL16-k0 (=100) | B23
24 | 103 % of HoCon Ab GpH7-B3/GpL16-k0 (=100) | B24
25 | 165 % of HoCon Ab GpH7-B3/GpL16-k0 (=100) | B25
26 | 130 % of HoCon Ab GpH7-B3/GpL16-k0 (=100) | B26
27 | 104 % of HoCon Ab GpH7-B3/GpL16-k0 (=100) | B27
